Data taken from PMC3279538 (Diabetes, 2010).

Target: endogenous B7-H1 wild type (NOD mouse, from wild-type spleen) (mouse (endogenous in NOD spleen), UniProt Q9EP73 19-290)
Assay: SPR

Chain of endogenous B7-H1 wild type (NOD mouse, from wild-type spleen) (Q9EP73 19-290): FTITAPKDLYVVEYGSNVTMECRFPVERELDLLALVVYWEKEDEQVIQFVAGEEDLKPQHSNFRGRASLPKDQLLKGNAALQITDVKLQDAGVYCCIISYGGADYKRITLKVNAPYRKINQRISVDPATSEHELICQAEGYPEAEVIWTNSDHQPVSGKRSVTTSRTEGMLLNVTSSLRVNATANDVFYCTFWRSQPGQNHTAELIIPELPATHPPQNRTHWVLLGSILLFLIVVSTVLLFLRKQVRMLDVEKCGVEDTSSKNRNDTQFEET

B1: PD-1 receptor (receptor, UniProt Q02242 25-169, looked up)
chain: LEVPNGPWRSLTFYPAWLTVSEGANATFTCSLSNWSEDLMLNWNRLSPSNQTEKQAAFCNGLSQPVQDARFQIIQLPNRHDFHMNILDTRRNDSGIYLCGAISLHPKAKIEESPGAELVVTERILETSTRYPSPSPKPEGRFQGM
Q: Which results are given for B1?
A: Kd: 11 nM; koff: 0.0017 s⁻¹
